The series deals with CMV Colburn assembly protein precursor (product of APNG.5).

In US6410296 one finds proteolytic activity data, which are given here for 2 proteins.

B1: LM7, subclone of APNG1 expressing amino acids 1-280 (protein)
chain: MADPVYVGGFLVRYDEPPGEAELFLPSGVVDRWLRDCRGPLPLNVNHDESATVGYVAGLQNVRAGLFCLGRVTSPKFLDIVQKASEKSELVSRGPPSESSLRPDGVLEFLSGSYSGLSLSSRRDINAADGAAGDAETACFKHVALCSVGRRRGTLAVYGRQPDWVMERFPDLTEADREALRNQLSGSGEVAAKESAESSAAAAVDPFQSDSYGLLGNSVDALYIQERLPKLRYDKRLVGVTARESYVKASVSPAEQETCDIKVEKERPKEPEQSHVPTES
Regarding B1, the proteolytic activity entry is recorded as “Both are proteolytically active using assembly protein precursor as a substrate”.

B2: LM8, subclone of APNG1 expressing amino acids 1-249 (protein)
chain: MADPVYVGGFLVRYDEPPGEAELFLPSGVVDRWLRDCRGPLPLNVNHDESATVGYVAGLQNVRAGLFCLGRVTSPKFLDIVQKASEKSELVSRGPPSESSLRPDGVLEFLSGSYSGLSLSSRRDINAADGAAGDAETACFKHVALCSVGRRRGTLAVYGRQPDWVMERFPDLTEADREALRNQLSGSGEVAAKESAESSAAAAVDPFQSDSYGLLGNSVDALYIQERLPKLRYDKRLVGVTARESYVKA
As to B2, the proteolytic activity entry is given as “Both are proteolytically active using assembly protein precursor as a substrate”.
